Source: the supplement of paper PMC7877785
± gives the uncertainty stated by the source.

Assay: self-splicing fitness, log relative to wild type (ln ratio); higher = more splicing; Tetrahymena group I intron in knt gene, E. coli kanamycin selection, DiMSum; sequences stand for … in CUCUCU…GGAGGGAAAAGUUAUCAGGCAUGCACCUGGUAGCUAGUCUUUAAACCAAUAGAUUGCAUCGGUUUAAAAGGCAAGACCGUCAAAUUGCGGGAAAGGGGUCAACAGCCGUUCAGUACCAAGUCUCAGGGGAAACUUUGAGAUGGCCUUGCAAAGGGUAUGGUAAUAAGCUGACGGACAUGGUCCUAACCACGCAGCCAAGUCCUAAGUCAACAGAUCUUCUGUUGAUAUGGAUGCAGUUCACAGACUAAAUGUCGGUCGGGGAAGAUGUAUUCUUCUCAUAAGAUAUAGUCGGACCUCUCCUUAAUGGGAGCUAGCGGAUGAAGUGAUGCAACACUGGAGCCGCUGGGAACUAAUUUGUAUGCGAAAGUAUAUUGAUUAGUUUUGGAGUACUCGUGGUCG
Summary of the method: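 Fitness was computed with DiMSum as the error-weighted combination of replicate fold changes, kanamycin versus none, each normalised to wild type. The library randomised all eight intron nucleotides of the P1ex region, with the intron placed in the knt kanamycin-resistance gene on pET-22b(+) in E. coli BL21(DE3). Six replicate transformations were grown overnight at 37°C or 30°C on LB agar with or without 25 μg/mL kanamycin, plus 100 μg/mL carbenicillin, 50 μM IPTG and 0.2% rhamnose. Pooled colonies were amplicon-sequenced on an Illumina HiSeq 2500.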

Sequence	self-splicing fitness (ln) (30 °C)	self-splicing fitness (ln) (37 °C)
GAUAAGCAAUAUUACGCGGC	-3.27 ± 0.26	-1.13 ± 0.2
UCACAGCAAUAUUACGCGGA	-1.81 ± 0.18	-2.12 ± 0.27
AAAAAGCAAUAUUACGAUUA	-0.462 ± 0.067	0.23 ± 0.081
GAUGAGCAAUAUUACGUUUU	-3.82 ± 0.22	-2.72 ± 0.2
CAUUAGCAAUAUUACGAGGC	–	-1.85 ± 0.33
CCCAAGCAAUAUUACGUAAC	-3.6 ± 0.18	-2.52 ± 0.21
UGAUAGCAAUAUUACGGUUG	-0.902 ± 0.072	0.392 ± 0.11
ACACAGCAAUAUUACGAUGU	-3.46 ± 0.1	-1.18 ± 0.08
AGCUAGCAAUAUUACGUGCA	-0.188 ± 0.069	0.247 ± 0.096
UCUGAGCAAUAUUACGGGGU	-4.62 ± 0.32	-2.28 ± 0.25
AACGAGCAAUAUUACGCGAC	-2.91 ± 0.21	-2.03 ± 0.27
AUGCAGCAAUAUUACGUCUA	-0.692 ± 0.12	0.148 ± 0.1
AUACAGCAAUAUUACGAGAA	-2.21 ± 0.25	-1.79 ± 0.16
UUCCAGCAAUAUUACGAUGG	-2.91 ± 0.24	–
UGCCAGCAAUAUUACGUGGA	-3.33 ± 0.18	-1.71 ± 0.13
CGUCAGCAAUAUUACGGCAG	-0.866 ± 0.064	-0.287 ± 0.077
GUUCAGCAAUAUUACGAGAC	-1.99 ± 0.4	-0.261 ± 0.22
ACUCAGCAAUAUUACGACGC	-0.134 ± 0.074	0.447 ± 0.088
GGGCAGCAAUAUUACGUGAG	-0.483 ± 0.085	-0.435 ± 0.1
UAAGAGCAAUAUUACGCCCA	-2.62 ± 0.26	-2.09 ± 0.41
CGCAAGCAAUAUUACGAGCU	-0.541 ± 0.063	-0.633 ± 0.078
ACUGAGCAAUAUUACGCUUC	-3.57 ± 0.24	-3.1 ± 0.28

Sequence	self-splicing fitness (ln) (30 °C)	self-splicing fitness (ln) (37 °C)
UGCUAGCAAUAUUACGGAAU	-3.98 ± 0.39	-2.97 ± 0.29
CUGUAGCAAUAUUACGCUAU	–	-0.73 ± 0.29
UGCGAGCAAUAUUACGAUCU	-1.84 ± 0.21	-1.06 ± 0.16
UUCAAGCAAUAUUACGUGGG	-3.07 ± 0.11	-1.97 ± 0.13
UUCAAGCAAUAUUACGAUGC	-3.39 ± 0.45	-1.85 ± 0.28
GACUAGCAAUAUUACGGGAU	-1.59 ± 0.14	-0.788 ± 0.14
GCCGAGCAAUAUUACGGUGA	-1.49 ± 0.088	-0.176 ± 0.095
CCCAAGCAAUAUUACGAACG	-3.72 ± 0.25	-3.46 ± 0.2
CCAUAGCAAUAUUACGCAUC	-3.39 ± 0.27	-2.31 ± 0.3
GCCAAGCAAUAUUACGGUGA	-1.06 ± 0.06	-0.493 ± 0.065
CUGUAGCAAUAUUACGGCAG	-3.85 ± 0.33	-1.32 ± 0.24
AUUAAGCAAUAUUACGGACA	-0.398 ± 0.22	-0.339 ± 0.2
UUGCAGCAAUAUUACGCAUG	-2.52 ± 0.13	-2.99 ± 0.19
AGCCAGCAAUAUUACGUGGA	-3.81 ± 0.18	-2.65 ± 0.14
GCCAAGCAAUAUUACGUCGA	-2.34 ± 0.16	-1.29 ± 0.14
UCAUAGCAAUAUUACGUCUU	-3.28 ± 0.24	-3.53 ± 0.32
CGGUAGCAAUAUUACGGCCC	-0.507 ± 0.2	0.668 ± 0.37
GGCGAGCAAUAUUACGUCUU	-0.851 ± 0.047	-0.197 ± 0.06
UAAGAGCAAUAUUACGGGAG	-3.33 ± 0.24	-1.83 ± 0.19
GACGAGCAAUAUUACGUUAA	-3.77 ± 0.27	-2.79 ± 0.25
UUGCAGCAAUAUUACGGUGG	-1.79 ± 0.1	-0.742 ± 0.1
